Where two headings read alike, the source gives them in different places. Non-standard residues stand in square brackets, D forms with d. Residues, ends and D or L forms follow the SMILES beside them. *: point of attachment. Sta = CC(C)C[C@H](N)[C@@H](O)CC(=O)O; Isovaleryl = CC(C)CC(=O)*
What was measured:
[1] = target: T1, purified S1P(187-983) (Cricetulus griseus, UniProt Q9Z2A8); type: biochemical, hamster; conditions: for inhibition of S1P at extremely high concentrations: extremely high concentrations of inhibitor; for Relative Activity (comparative cleavage of fluorogenic synthetic peptidyl substrates): cleavage by purified S1P-C(187-983), MCA-peptide 100 μM, pH 8.0, 37° C.
T1 construct: 1.5-5 μg of purified S1P(187-983); made in house; host or cells: SRD-12B cells (CHO-derived) stably transfected with pCMV-S1P(983)-Myc-His (TR-3117, 'S1P(983) cells'); The protein was secreted into serum-free medium and purified on Ni-NTA agarose
T1 sequence (Q9Z2A8 187-983): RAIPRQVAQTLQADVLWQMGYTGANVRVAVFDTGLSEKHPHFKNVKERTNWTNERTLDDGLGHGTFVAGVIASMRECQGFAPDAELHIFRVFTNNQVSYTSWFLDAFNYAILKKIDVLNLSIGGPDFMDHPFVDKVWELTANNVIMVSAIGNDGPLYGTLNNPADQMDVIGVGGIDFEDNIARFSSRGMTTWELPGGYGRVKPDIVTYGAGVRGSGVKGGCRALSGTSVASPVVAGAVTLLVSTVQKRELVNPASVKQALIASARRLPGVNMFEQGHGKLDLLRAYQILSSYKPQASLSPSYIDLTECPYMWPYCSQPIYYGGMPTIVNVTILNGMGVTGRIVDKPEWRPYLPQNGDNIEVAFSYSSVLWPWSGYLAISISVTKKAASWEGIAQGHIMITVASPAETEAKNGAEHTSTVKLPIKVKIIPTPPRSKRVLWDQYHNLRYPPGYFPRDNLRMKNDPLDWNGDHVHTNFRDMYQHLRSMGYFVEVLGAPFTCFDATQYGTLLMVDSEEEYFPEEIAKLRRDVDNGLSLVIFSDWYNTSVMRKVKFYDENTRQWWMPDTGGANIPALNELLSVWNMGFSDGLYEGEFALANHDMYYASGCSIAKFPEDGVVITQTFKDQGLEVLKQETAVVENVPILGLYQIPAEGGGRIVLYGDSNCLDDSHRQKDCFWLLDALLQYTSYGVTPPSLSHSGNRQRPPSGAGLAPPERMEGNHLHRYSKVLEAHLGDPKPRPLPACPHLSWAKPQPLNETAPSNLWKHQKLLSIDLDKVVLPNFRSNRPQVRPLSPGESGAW
Protocol: Stock cultures of S1P(983) cells were grown in 850-cm^2 roller bottles in medium B supplemented with 5% (v/v) newborn calf lipoprotein-deficient serum and 500 μg/mL G418. On day 0, 10 roller bottles of S1P(983) cells were seeded at a density of ˜4×10^7 cells/roller bottles. On day 2, the medium was replaced with 100 mL of serum-free medium CHO-S-SFMII. The medium from each roller bottle was collected daily from day 3 to day 7. The collected medium was pooled, filtered through 0.45-μm cellulose acetate low-protein binding membrane filter units (Corning Costar) and stored at 4° C. for 0 to 4 days. On day 7, the filtered medium was adjusted to pH 8.0 by addition of tris-HCl at a final concentration of 25 mM, and then loaded onto four parallel 5-mL Ni-NTA agarose columns (Qiagen, Inc., Chatsworth, Calif.) equilibrated with 20 mL of buffer B (25 mM tris-HCl at pH 8.0, 10% (v/v) glycerol, 1 mM CaCl2). The chromatography was performed at 4° C. via gravity at ˜100 mL/hr. The column was washed with 40 mL of buffer B supplemented with 1M NaCl followed by 20 mL of buffer B without NaCl. […] The eluate was concentrated with a Centriprep 30 filter followed by a Centricon 30 filter (Amicon, Inc.).
S1P activity was measured fluorometrically with MCA-conjugated peptidyl substrates. Each reaction was carried out in 0.2 mL of assay buffer (25 mM tris, 25 mM Mes, 25 mM acetic acid, and 1 mM CaCl2 adjusted to pH 8.0 with concentrated NaOH). Reactions contained MCA-peptide (final concentration 100 μM, added in 2 μl DMSO) and 1.5-5 μg of purified S1P(187-983). After incubation for 0.5-5 h at 37° C., each reaction was terminated by addition of 1 mL of ice-cold 5 mM sodium EDTA. The liberated 7-amino-4-methylcoumarin (AMC) was measured with a Perkin-Elmer LS-30 luminescence spectrometer (360 nm excitation, 460 nm emission). A standard curve of fluorescence intensity was generated with different concentrations of AMC (Promega).

[2] = tested on: T2, Ac-Val-Phe-Ala-Ser-Leu-Lys-MCA
T2 sequence: XFASLX

[3] = tested on: T3, Ac-Ser-Gly-Ser-Gly-Arg-Ser-Val-Leu-MCA
T3 sequence: XGSGRSVX

[4] = tested on: T4, Ac-Ser-Gly-Arg-Ser-Val-Leu-MCA
T4 sequence: XGRSVX

[5] = tested on: T5, Boc-Arg-Val-Arg-Arg-MCA
T5 sequence: XVRX

[6] = tested on: T6, Ac-Val-Phe-Arg-Ser-Arg-Arg-MCA
T6 sequence: XFRSRX

[7] = tested on: T7, Ac-Arg-Ser-Leu-Lys-MCA
T7 sequence: XSLX

[8] = tested on: T8, Ac-Arg-Ser-Val-Leu-MCA
T8 sequence: XSVX

[9] = tested on: T9, Ac-Val-Phe-Arg-Ser-Leu-Lys-MCA
T9 sequence: XFRSLX

[10] = incubated with substrate Ac-VFRSLK-MCA

Molecule | inhibition of S1P [1, 10] | Relative Activity (comparative cleavage of fluorogenic synthetic peptidyl substrates) [1] | other results
O[C@H](CS)[C@H](O)CS (racemic) [dithiothreitol] | – | – | inhibition of S1P at extremely high concentrations [1, 10]: also inhibited S1P
c1cnc2c(c1)ccc1cccnc12 [1,10-phenanthroline] | – | – | inhibition of S1P at extremely high concentrations [1, 10]: also inhibited S1P
N=C(N)c1ccc(CS(=O)(=O)F)cc1 [APMSF, (4-amindinophenyl)-methanesulfonyl fluoride] | not significantly inhibited | – | –
O=C(O)CN(CCN(CC(=O)O)CC(=O)O)CC(=O)O [EDTA] | – | – | inhibition of S1P [1]: partially inhibited
O=C(O)CN(CCOCCOCCN(CC(=O)O)CC(=O)O)CC(=O)O [EGTA] | – | – | inhibition of S1P at extremely high concentrations [1, 10]: also inhibited S1P
O=S(=O)(F)Cc1ccccc1 [PMSF, phenylmethylsulfonyl fluoride] | not significantly inhibited | – | –
Cl.NCCc1ccc(S(=O)(=O)F)cc1 [Pefabloc®] | – | – | inhibition of S1P at high concentrations ([1]; incubated with substrate Ac-VFRSLK-MCA, high concentrations of inhibitor): did inhibit S1P
CC(=O)N[C@@H](CC(C)C)C(=O)N[C@@H](CC(C)C)C(=O)N[C@H](C=O)CCCNC(=N)N [leupeptin] | resistant | – | –
CC(C)CC(=O)N[C@H](C(=O)N[C@H](C(=O)N[C@@H](CC(C)C)[C@@H](O)CC(=O)N[C@@H](C)C(=O)N[C@@H](CC(C)C)[C@@H](O)CC(=O)O)C(C)C)C(C)C [pepstatin] (Isovaleryl-VV[Sta]A[Sta]-OH) | resistant | – | –
Ac-Arg-Ser-Leu-Lys-MCA [Ac-RSLK-MCA, fluorogenic MCA-conjugated peptidyl substrate] | – | 0.47 | –
Ac-Arg-Ser-Val-Leu-MCA [Ac-RSVL-MCA, fluorogenic MCA-conjugated peptidyl substrate] | – | <0.1 | –
Ac-Ser-Gly-Arg-Ser-Val-Leu-MCA [Ac-SGRSVL-MCA, fluorogenic MCA-conjugated peptidyl substrate] | – | <0.1 | –
Ac-Ser-Gly-Ser-Gly-Arg-Ser-Val-Leu-MCA [Ac-SGSGRSVL-MCA, fluorogenic MCA-conjugated peptidyl substrate] | – | <0.1 | –
Ac-Val-Phe-Ala-Ser-Leu-Lys-MCA [Ac-VFASLK-MCA, fluorogenic MCA-conjugated peptidyl substrate] | – | <0.1 | –
Ac-Val-Phe-Arg-Ser-Arg-Arg-MCA [Ac-VFRSRR-MCA, fluorogenic MCA-conjugated peptidyl substrate] | – | <0.1 | –
Ac-Val-Phe-Arg-Ser-Leu-Lys-MCA [Ac-VFRSLK-MCA, fluorogenic MCA-conjugated peptidyl substrate] | – | 1.0 | –
Boc-Arg-Val-Arg-Arg-MCA [Boc-RVRR-MCA, fluorogenic MCA-conjugated peptidyl substrate] | – | <0.1 | –
N-acetyl-leucinal-leucinal-norleucinal [ALLN] | resistant | – | –
aprotinin | resistant | – | –
purified S1P(187-983), secreted form from S1P(983)-Myc-His cells (hamster Site-1 protease) | – | – | Relative Activity (cleavage of fluorogenic MCA substrate, release of AMC) (relative activity) [2]: < 0.1; Relative Activity (cleavage of fluorogenic MCA substrate, release of AMC) (relative activity) [3]: < 0.1; Relative Activity (cleavage of fluorogenic MCA substrate, release of AMC) (relative activity) [4]: < 0.1; Relative Activity (cleavage of fluorogenic MCA substrate, release of AMC) (relative activity) [5]: < 0.1; Relative Activity (cleavage of fluorogenic MCA substrate, release of AMC) (relative activity) [6]: < 0.1; Relative Activity (cleavage of fluorogenic MCA substrate, release of AMC) (relative activity) [7]: 0.47; Relative Activity (cleavage of fluorogenic MCA substrate, release of AMC) (relative activity) [8]: < 0.1; Relative Activity (cleavage of fluorogenic MCA substrate, release of AMC) (relative activity) [9]: 1
